Read-outs that look alike come from different tables or passages of the source.
Key:
Experiment in all cases: ELISA, antigen captured by anti-His antibody on plate, HRP anti-IgG Fc detection
[1] = molecular target: Human VEGF121/VEGF-A protein (human VEGF 121 isoform) with 6-His tag (human) (UniProt P15692)
[2] = molecular target: Human VEGF121/VEGF-A protein (human VEGF 121 isoform) with 6-His tag (human) (UniProt P15692); remark: listed apart in the source
[3] = molecular target: Human VEGF121/VEGF-A protein (human VEGF 121 isoform) with 6-His tag (human) (UniProt P15692); remark: listed apart in the source
[4] = molecular target: Human VEGF121/VEGF-A protein (human VEGF 121 isoform) with 6-His tag (human) (UniProt P15692); remark: listed apart in the source

Human VEGF121/VEGF-A protein (human VEGF 121 isoform) with 6-His tag (human), sequence (P15692 other isoform, or with tags, fused parts or gaps limits assumed): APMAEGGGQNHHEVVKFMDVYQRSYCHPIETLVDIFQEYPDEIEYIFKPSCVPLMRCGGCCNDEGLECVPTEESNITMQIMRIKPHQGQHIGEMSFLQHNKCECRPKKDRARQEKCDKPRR
Aflibercept (VEGFR-Fc) (Fc fusion), sequence (chain): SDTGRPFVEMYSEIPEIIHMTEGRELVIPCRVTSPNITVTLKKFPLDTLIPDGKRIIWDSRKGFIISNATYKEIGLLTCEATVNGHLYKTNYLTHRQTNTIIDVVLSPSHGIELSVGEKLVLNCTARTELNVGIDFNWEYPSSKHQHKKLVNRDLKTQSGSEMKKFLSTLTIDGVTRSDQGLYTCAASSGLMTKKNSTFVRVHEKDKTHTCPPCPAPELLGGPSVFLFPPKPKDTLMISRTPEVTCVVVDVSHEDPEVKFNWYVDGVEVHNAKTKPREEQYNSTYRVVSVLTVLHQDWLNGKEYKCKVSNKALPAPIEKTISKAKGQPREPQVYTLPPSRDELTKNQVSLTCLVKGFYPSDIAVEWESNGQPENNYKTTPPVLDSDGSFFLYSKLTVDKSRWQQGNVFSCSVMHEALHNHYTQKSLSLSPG

EC50 [1]: 21.4 nM
EC50 [2]: 15.3 nM
EC50 [3]: 12.2 nM
EC50 [4]: 10.5 nM
Substance: Aflibercept (VEGFR-Fc) (Fc fusion)
